Laboratory results from the RNAGym collection of RNA variant scans (doi:10.1073/pnas.2313332121).
Fewer inactive variants are shown than the library holds.

B1: TPR 5TU (parent)
chain: GGAUCUUCUCGAUCUAACAAAAAAGACAAAUCUGCCACAAAGCUUGAGAGCAUCUUCGGAUGCAGAGGCGGCAGCCUUCGGUGGCGCGAUAGCGCCAACGUUCUCAACUAUGACACGCAAAACGCGUGCUCCGUUGAAUGGAGUUUAUCAUG

Variants of: B1
Assay: polymerase ribozyme fitness, log enrichment relative to wild type (log ratio); higher = more active; in vitro selection for triplet polymerase activity
Method in brief: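 Fitness is a logarithmic measure of how a genotype enriched relative to the wild type, with replicate averages weighted by inverse variance. The logarithm uses base 2, and enrichment came from Illumina sequencing of input and output libraries. Those libraries were PCR-built, transcribed mutants of each subunit of a heterodimeric triplet polymerase ribozyme, passed through one triplicate in vitro selection round that included frozen incubation at −7 °C, gel excision of extended constructs and streptavidin-bead capture. Genotypes were kept only if they had ≥10 input reads and ≥1 read per output.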

Going from GGAUCUUCUCGAUCUAACAAAAAAGACAAAUCUGCCACAAAGCUUGAGAGCAUCUUUGGAUGCAGAGGCGGCAGCCUUCGGUCGCGCGAUAGCGCCAACGUUCUCAACUAUGACACGCAAAACGCGUGCUCCGUUGAAUGGAGUUUAUCAUG [C57U G83C] to GGAUCUUCUCGAUCUAACAAAAAAUACAAAUUUGCCACAUAGCUUGAGAGCAUCUACGGAUGCAGAGGCGGCAGCCUUCCGUGGAGAGAUAGCGCCAACGUUCUCAACUAUGACAGGCAAAACGCGUGCUCCGUUGAAUGGAGUUGAUCUUG [G25U C32U A40U U56A G80C C85A C87A C116G U146G A150U], the “polymerase ribozyme fitness (log ratio)” value falls from -0.999 to at most -4.2.

First: GGAUCUUCUCGAUCUAACAAAAAAGACAAAUCUGCCACACAGCUUGAGAGCAUCUUCGGAUGCAGAGGCGGCAGCCUUCGGUGGCGCGAUAGCGCCUACGUUCUCAACUAUGACACGCAAAACGCGUGCUCCGUUGAAUGGAGUUUAUCAUG [A40C A97U]
Second: GGAUCUUCUCGAUCUAAGAAAAAAGACAAAUCUGCCACAAAGCUUGAGAGCAUCUUAGGAUGCAGAGGCGGCAGCCUUCGGUGGCGCGAUAGUGCCAACGUUCUCAACUAUGACACGCAAAACGCGUGCUCCGUCGAAUGGAGUGUAUCAUG [C18G C57A C93U U135C U145G]
The “polymerase ribozyme fitness (log ratio)” value of the first is higher: -0.185 for the first, -3.11 for the second.

Compared with GGAUCUUCUCGGUCUAACAAUAAAGAAAAAUCUGCCACAAAGCUUGACCGAAUCUUCGGAUGCAGAGGCGGCAGCCUUCGGUGACGCGAUAGCGCCAACGUUCUCAACUAUGACACGCAAAACGCGUGAUCCGUUGAAUGGAGUUUAUCAUG [A12G A21U C27A G48C A49C C51A G84A C129A], GGAUCUUCUCGAUCUAACAAAAAAGACAAAUCUGCCACAAAGCUUGAGAGCAUCUUCGGGUGCAGAGGCGGCAGCCUUCGGUGGCGCGAUAGCGCCAACGUUCUCAUCUAUGACACGCAAAACGCGUGCUCCGUUGAAUGGAGUUUAUCAUG [A60G A107U] is higher in “polymerase ribozyme fitness (log ratio)” value: at most -4.2 for the first, -3.1 for the second.

Compared with GGAUCUUCUCGUUCUAACACAAAAGACAAAUCUGCCACAAAGCUUGAGAGCAUCUUCGGAUGCAGAGGCGGCAGCCUUCGGUGGCUCGAUAGCGCCAACUUUCUCAACUAUGACACGCAAAACGCGUGCUCCGUUGAAUGGAGUUUAUCAAG [A12U A20C G86U G100U U151A], GGAUCUUCUCGAUCUAACAAAAAAGACAAAUCUGCCACAAAGCUUGAGAGCAUCUUCGGAUGCAGAGGCGGCAGCCUUCGGUGGCGCGAUAGCACCAACGUUCUUAACUAUGACAUGCAAAACGGGUGCUCCGUUGAAUGGAGUUUAUCAUG [G94A C105U C116U C125G] is higher in “polymerase ribozyme fitness (log ratio)” value: at most -4.2 for the first, -0.0334 for the second.

First: GGAUCUUCUCGAUCUAAUAAAAAAGACAAAUCUGCCACAAAGCUUGAGAGCAUCAUCGGAUGCAGAGGCGGCAGCCUUCGCUGGCGCGAUAGUGCCAACGUUCUUAACUAUGACACGGAAAACGCGUGCUCCGUUGAAUGGAGUUUAUCAUG [C18U U55A G81C C93U C105U C118G]
Second: GGAUCUUCUCGAUCUAACAAAAAUGACAAAUCUGCCACAAAGCUUGAGAGCAACUUAGGAUGCAGAGGCGGCAGCCUUCGGUGGCGCGAUAGCGACAACGUUCUCAACUAUGACACGCAAAAGGCGUGCUCCGUUGAAUGGAGUUUAUCAUG [A24U U53A C57A C95A C123G]
The “polymerase ribozyme fitness (log ratio)” value of the first is lower: -1.85 for the first, 0.167 for the second.

First: GGAUCUUCUCGAUCUAACAAAAAAGACAAAUCUGCCACAAAGCUUGAGAGCAUCUUCGGAUGCAGAGGAGGCAGCCUUCGGUGGCGCGAUAGCGCCAACGUUCUCAACUAUGACACGCAAAACGCGUGCUCCGUUGAAUGGAGCUUAUCAUG [C69A U144C]
Second: GGAUCUUCUCGAUCUAACAAAAAAGACAAAUCUGCCACAUAGCUUGAGAGCAUCUUCGGAUGCAGAGGCGGCAGGCUUCGGUGGGGCGAUAGCGCCAACGUUCUCAACUAUGACACGCAAAACGCGUGCUCCGUGGAAUUGAGUUUAUCAUG [A40U C75G C85G U135G G140U]
The “polymerase ribozyme fitness (log ratio)” value of the first is higher: -1.07 for the first, at most -4.2 for the second.

GGAUCUUCUCGAUCUAACAAAAAAGACAACUCUGCCACAAAGCUUGAGAGCAUCUUCGGAUGCAGAGGCGGCAGCCUUCGGUGGCGCGAUACCGCCAACGUUCUCAACUAUGACACGCAAAACGCAUGCUCCGUUGAAUGGAGUUUAUCAUG [A30C G92C G126A] and GGAUCUUGUCGAUCUAACAAAAAAGACAAAUCUGCCACAAAGCUUGACAGCAUCUUCGGAUGCAGAGGCGGCAGCCUUCUGUGUCGCGAUAGCGCCAACGUUCUCAACUAUGACACGCAAAACGUGUGCUCCGUUGAAUGUAGUUUAUCAUG [C8G G48C G80U G84U C125U G141U] cannot be ordered by “polymerase ribozyme fitness (log ratio)” value: at most -4.2 for the first, at most -4.2 for the second.

First: GGCUCUUCUCGAUCUAACAAAAAAGACAAAUCUGCCACAAAGCUUGAGAGCAUCUUCGGAUGCAGAGGCCGCAGCCUUCGGUGGCGGGAUAGCGCGAACGUUCUCAGCUAUGACACGCAAAACGCGUGCUCCGUUGAAUGGAGUUGAUCAUG [A3C G70C C87G C96G A107G U146G]
Second: GGAUCUUCUCGAUCUAACAAAAAAGAGAAAUCUGCCACAAAGCUUGAGAGCAUCAUCGGAUGCAGAGGCGGCAGCCUUCGGUGGCGCGAUAGCGCCAACGUUCUCAACUAUGACACGCAAAACGCGUGCUCCGUUGAAUGGAGUUUAUCAUG [C27G U55A]
The “polymerase ribozyme fitness (log ratio)” value of the first is lower: at most -4.2 for the first, -3.74 for the second.

Compared with GGAUCUUCUCGAUCUAACAAAAAAGACAAAUCUGCCACAACGCUUGAGAGCAUCUUCGGAUGCAGAGGCGGCAGCCUUCGGUGGCGCGAUAGCGCCAACGUUCUCCACUAUGACACGCAAAACGCGUGCUCCGUUGAAUGGAGUUUAUCAUG [A41C A106C], GGAUCUUCUCGAUCUAACAAAAAAGACAAAUCUGCCACAAAGCUUGAGAGCAUCUUCGGAUGCAGAGGCCGCAGCCUUCGGUGUCGCGAUAGCGCCAACGUUCUCAUCUAUGACACGCAAAACGCGUGCUCCGUUGAAUGGAGUUUAUCAUG [G70C G84U A107U] is lower in “polymerase ribozyme fitness (log ratio)” value: -0.881 for the first, at most -4.2 for the second.

In the case of GGAUCUUCUCGAUCUAACAAAAAAGACAAAUCUGCCACAAAGCUUGAGAGCAUCUUCGGAUGCAGAGGCGGCAGCCUUCGGUGGCGCGAUAGCUCCAACGUUCUCAACUAUGACACGCAAAACGCGUGCUCCGUUGAAUGGAGUUUAUCGUG [G94U A150G], the “polymerase ribozyme fitness (log ratio)” value is reported as -2.5.
